Laboratory results taken from article PMC3915751.

Tested on: T1, BaeR (Erwinia amylovora Ea1189 (primers from CFBP1430 genome)), ORF:3df56c72
T1 sequence: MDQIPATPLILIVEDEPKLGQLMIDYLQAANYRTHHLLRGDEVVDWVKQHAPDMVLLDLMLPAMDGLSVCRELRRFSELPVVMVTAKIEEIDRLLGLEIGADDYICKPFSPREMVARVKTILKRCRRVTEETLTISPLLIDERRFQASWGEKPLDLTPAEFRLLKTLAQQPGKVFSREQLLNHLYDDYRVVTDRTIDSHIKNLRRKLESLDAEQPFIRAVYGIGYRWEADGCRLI
Experiment: EMSA
Details: 50 mM Tris-HCl pH 7.5, 1 mM DTT, 500 mM MgCl2, 100 mM EDTA, 10 mM NaCl ([…], room temperature 30 min

| Sequence | binding |
| --- | --- |
| TGGCTGGCAACACTGAAGCCGCCCAGGCTCAGGCCGATGAGTAAAGGGAGCAGTTTGTTCATTTGCATTCCTTGTAGTGCAGCAAAATTGTTATGGTAGCGTTGACGCAGACCAAAAATTGTCGCCGATGATAGCAGAGACTCCGGATCAGGTAAGTTGGCTGAAAGTGCCATCCTCCTTTTAATTTACTTAAATACTTCATCAAGAACCAGACATCCGGCTGATTACTATTGAACTAAACGTTTTCGCCATTATTTCAGGAGATACAGTGATGACCGCAGTGACCAATTA (double strand) [tolC upstream region (291 bp)] | no binding |
| TGTTTGGTATTTCGTGCCATAGCGGTATGATTTACAACGCTTCAGACTTACATACATTTGCGAATGTATGTACTATAGCACGACTAAAATTTAAACGCAGCAGTGGGTTTGTAATCCATTGAACAATCGATATCGGACATTCGAGGTTTATTTATGAACAAAAACAGAGGGTTAACGCCTCTGGCGGCCGTTCTGATGCTTTCAG (double strand) [acrAB upstream region (205 bp)] | binds more weakly |
